Values of other authors in paper PMC4303689.

Biological target: His50 (UniProt position 50, KEGVVHGVATV)
Assay: NMR
Settings: not stated (the range of values reflects different ionic strengths); free monomeric alpha-synuclein (inferred from context)

alpha-synuclein (Homo sapiens)
pKa: 6.5–6.8
